Target: Presenilin 1 (mouse (endogenous in primary neurons of CD1 mice)), P49769
Assay: FRET or BRET
Details: remark: other sources report otherwise

B1: amyloid β precursor protein, P12023 18-770 (natural protein)
chain: LEVPTDGNAGLLAEPQIAMFCGKLNMHMNVQNGKWESDPSGTKTCIGTKEGILQYCQEVYPELQITNVVEANQPVTIQNWCKRGRKQCKTHTHIVIPYRCLVGEFVSDALLVPDKCKFLHQERMDVCETHLHWHTVAKETCSEKSTNLHDYGMLLPCGIDKFRGVEFVCCPLAEESDSVDSADAEEDDSDVWWGGADTDYADGGEDKVVEVAEEEEVADVEEEEADDDEDVEDGDEVEEEAEEPYEEATERTTSTATTTTTTTESVEEVVREVCSEQAETGPCRAMISRWYFDVTEGKCVPFFYGGCGGNRNNFDTEEYCMAVCGSVSTQSLLKTTSEPLPQDPDKLPTTAASTPDAVDKYLETPGDENEHAHFQKAKERLEAKHRERMSQVMREWEEAERQAKNLPKADKKAVIQHFQEKVESLEQEAANERQQLVETHMARVEAMLNDRRRLALENYITALQAVPPRPHHVFNMLKKYVRAEQKDRQHTLKHFEHVRMVDPKKAAQIRSQVMTHLRVIYERMNQSLSLLYNVPAVAEEIQDEVDELLQKEQNYSDDVLANMISEPRISYGNDALMPSLTETKTTVELLPVNGEFSLDDLQPWHPFGVDSVPANTENEVEPVDARPAADRGLTTRPGSGLTNIKTEEISEVKMDAEFGHDSGFEVRHQKLVFFAEDVGSNKGAIIGLMVGGVVIATVIVITLVMLKKKQYTSIHHGVVEVDAAVTPEERHLSKMQQNGYENPTYKFFEQMQN
FRET efficiency (E FRET), vehicle treated cells: 7.07%

— article PMC3534898
